Read-outs that look alike come from different tables or passages of the source.
Tests used:
Ad3-GFP virus [1] = test: Competition of Ad3-GFP virus infection on HeLa cells; type: cell-based, adenovirus serotype 3
Protocol: (§1) FIG. 3A-3D. Competition of Ad3 virus by dimerized Ad3 knob mutants. FIG. 3A) Relative attachment of ^3H-labeled Ad3 virus in the presence of dimeric fiber knob mutants. 1.8×10^5 HeLa cells were incubated with Ad3 knob mutants at a concentration of 2.5 and 100 μg/ml on ice for 1 hour. Then 400 pfu/cell of ^3H-Ad3 virus was added on ice for another hour. Unbound virus particles were washed away. Attachment of virus particles incubated with PBS was taken as 100%. N=3. FIG. 3B1-3B2) Competition of Ad3-GFP virus infection on HeLa cells. 1.5×10^5 HeLa cells were seeded into 24 well plates. Cells were incubated with the Ad3 knob mutants at increasing concentrations for one hour at room temperature. 100 pfu/cell of Ad3-GFP virus were then added and GFP expression was analyzed 18 hours later by flow cytometry. FIG. 3B1) percentage of GFP positive cells. FIG. 3B2) mean fluorescence intensity. N=3. The standard deviation was less than 10%. FIG. 3C) Relative attachment of ^3H-labeled Ad3 virus in the presence of dimeric fiber knob mutants with multiple mutations. The study was performed as described in FIG. 3B) The standard deviation was less than 10%. FIG. 3D) Competition of Ad3-GFP virus infection on HeLa cells. The study was performed as described in FIG. 3C) The standard deviation was less than 10%.
FIG. 9A1-9C. Analysis of dimeric Ad3 fiber knob mutants with increased affinity to DSG2. FIG. 9A1-9A2) Competition of Ad3-GFP virus infection on HeLa cells with dimeric affinity-enhanced mutant Y250F and JO-1 (dimeric wt Ad3 fiber knob). The experimental setting is as described for FIG. 3C. FIG. 9A1) percentage of GFP positive cells. FIG. 9A2) mean fluorescence intensity. N=3. The standard deviation was less than 10%. […] 100 pfu/cell of Ad3GFP virus were then added and GFP expression was analyzed 18 hours later. […]
Functional validation. […] Transduction was measured based on GFP expression (FIG. 3B). […] Dimeric Ad3 knob mutants with combined mutations were also analyzed for their ability to compete with Ad3 virus for attachment (FIG. 3C) and infection (FIG. 3D).

soluble recombinant DSG2 = target: T1, soluble recombinant DSG2 (Homo sapiens, UniProt Q14126); test: Western blot of dimeric Ad3 fiber knob mutants with soluble recombinant DSG2 as probe; type: binding; conditions: dimerized knob mutants compared to JO-1
T1 construct: Western blot using soluble recombinant DSG2 as a probe; purchased Leinco Technologies, Inc. (St. Louis, MO)
T1 sequence (Q14126 50-609 limits assumed): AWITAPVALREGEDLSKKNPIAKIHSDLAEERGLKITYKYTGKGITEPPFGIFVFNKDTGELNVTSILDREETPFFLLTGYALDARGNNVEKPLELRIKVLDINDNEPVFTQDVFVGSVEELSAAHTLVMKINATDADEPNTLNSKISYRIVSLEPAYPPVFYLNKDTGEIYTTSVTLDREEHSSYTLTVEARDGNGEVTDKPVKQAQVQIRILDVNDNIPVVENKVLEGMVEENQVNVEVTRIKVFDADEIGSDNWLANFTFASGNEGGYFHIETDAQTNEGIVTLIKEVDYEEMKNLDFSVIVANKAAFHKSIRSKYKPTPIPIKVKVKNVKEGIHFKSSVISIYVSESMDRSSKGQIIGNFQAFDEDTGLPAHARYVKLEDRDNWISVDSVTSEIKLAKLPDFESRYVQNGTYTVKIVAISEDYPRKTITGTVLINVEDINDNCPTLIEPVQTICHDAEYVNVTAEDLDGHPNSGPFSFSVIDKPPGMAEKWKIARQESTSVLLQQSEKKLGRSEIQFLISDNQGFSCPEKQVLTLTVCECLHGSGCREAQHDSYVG
Excerpt: FIG. 1A-1F. Residues found to be critically involved in binding to DSG2. FIG. 1A) Shown are the amino acid sequences of the Ad3 and Ad14p1 fiber knob. Beta sheets present in the Ad3 knob (PDB accession number 1H7Z_A) and Ad14 knob (PDB: 3F0Y_A) are indicated by lines. Black arrows indicate residues within the Ad3 fiber knob which, when mutated individually, ablate or reduce binding to DSG2. […] FIG. 1B) Schematic structure of dimeric Ad3 fiber knob mutants. The fiber knob domain and one shaft motif was fused through a flexible linker to a homodimerizing K-coil domain (41). The proteins are self-dimerizing and can be purified by His-Ni-NTA affinity chromatography. FIG. 1C-FIG. 1F) Analysis of binding of dimeric Ad3 fiber knob mutants to soluble DSG2. FIG. 1C and FIG. 1D) Coomassie staining. 10 μg of purified Ad3 fiber knob (unboiled) were loaded per lane. Trimeric forms of the fiber knobs are indicated by an arrow. The gel contained SDS and the loading buffer containing DTT, which caused the disassembly of dimers of trimeric fiber knobs as previously reported (41). FIG. 1E and FIG. 1F): Western blot using soluble recombinant DSG2 as a probe, followed by anti-DSG2-mAb and anti-mouse IgG-HRP. For comparison, JO-1 (0.5 μg/lane) is shown. The Western blots were scanned and signals were quantified.
Western Blot: Mini-PROTEAN precast gels (BIO-RAD, Hercules, CA) with 4-15% gradient polyacrylamide were used. A total of 1 μg protein mixed with 2× loading buffer (10 mM Tris-HCl, pH6.8, 200 mM DTT, 4% SDS, 20% glycerol, 0.2% bromophenol blue) was loaded per lane. Samples were either boiled (B) for 5 min or loaded unboiled (UB). The following running buffer was used: 25 mM Tris, pH8.3, 0.192 M glycine, 0.1% SDS. After electrophoresis, proteins were transferred to nitrocellulose and incubated with recombinant human DSG2 protein and anti-DSG2 antibodies as described previously (42). The Western blots were scanned and quantified using the ImageJ 1.32 software (National Institutes of Health, Bethesda, MD). JO-1 band intensity was set as 100%. […]

3H-labeled Ad3 virus = test: Competition of 3H-labeled Ad3 virus attachment to HeLa cells; type: cell-based, adenovirus serotype 3
Protocol: as §1, with “The study was performed as described in FIG. 3B) The standard deviation was less than 10%. FIG. 3D) Competition of Ad3-GFP virus infection on HeLa cells. The study was performed as described in FIG. 3C) The standard deviation was less than 10%.” left out
Competition assays. […] After the last wash, the supernatant was removed and the cell-associated radioactivity was determined by a scintillation counter. The number of VP bound per cell was calculated by using the virion specific radioactivity and the number of cells.

Ad3-GFP virus [2] = conditions: previous studies (37, 41, 42); cited from earlier work
DSG2 [3] = target: T2, DSG2 (Homo sapiens, UniProt Q14126); conditions: previous studies (37, 41, 42); cited from earlier work
T2 construct: Western blot using soluble recombinant DSG2 as a probe; purchased Leinco Technologies, Inc. (St. Louis, MO)
T2 sequence (Q14126 50-609 limits assumed): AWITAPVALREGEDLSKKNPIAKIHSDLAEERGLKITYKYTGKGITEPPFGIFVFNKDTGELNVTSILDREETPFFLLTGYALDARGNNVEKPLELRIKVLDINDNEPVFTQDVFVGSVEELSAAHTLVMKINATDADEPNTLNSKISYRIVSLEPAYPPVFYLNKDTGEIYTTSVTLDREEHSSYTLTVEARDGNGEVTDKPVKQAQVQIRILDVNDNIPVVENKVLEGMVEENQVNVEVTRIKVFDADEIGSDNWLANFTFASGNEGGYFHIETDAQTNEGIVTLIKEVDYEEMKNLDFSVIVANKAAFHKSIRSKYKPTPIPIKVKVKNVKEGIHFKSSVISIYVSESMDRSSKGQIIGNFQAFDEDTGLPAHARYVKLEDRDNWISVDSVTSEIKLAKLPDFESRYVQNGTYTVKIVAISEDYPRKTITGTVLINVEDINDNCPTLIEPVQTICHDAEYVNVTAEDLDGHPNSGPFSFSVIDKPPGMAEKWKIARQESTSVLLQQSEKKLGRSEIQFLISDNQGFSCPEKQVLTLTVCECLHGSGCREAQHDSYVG

[4] = system: polarized colon cancer T84 cells; conditions: previous studies (37, 41, 42); cited from earlier work
DSG2 [5] = target: T2, DSG2; test: Surface plasmon resonance of Ad3 fiber knobs on immobilized DSG2; type: binding; conditions: knobs without dimerization domain
Protocol: FIG. 7A-7B. SPR analysis of non-dimerized Ad3 fiber knob interactions with DSG2. FIG. 7A) DSG2 was immobilized on sensorchips, and background was automatically subtracted from the control flow cell. The Ad3 fiber knobs (w/o dimerization domain: “noDD”) were injected for 3 minutes at 2.5 μg/ml followed by a 2.5 minutes dissociation period. FIG. 7B) Summary of SPR data. […] The extracted data are resumed in the table. Wt=Ad3 fiber knob without mutations FIG. 8A-8G. Electron microscopy and 3D structure of Ad3 fiber knob mutant JO-2.
Surface Plasmon Resonance: Acquisitions were done on a BIAcore 3000 instrument. HBS-N (GE-Healthcare, Pittsburgh, PA) supplemented with 2 mM CaCl2) was used as running buffer in all experiments at a flow rate of 5 [l/min. Immobilization on CM4 sensorchip (BIAcore) was performed using DSG2 at 10 μg/ml diluted in 10 mM Acetate buffer pH 4.5 injected for 10 minutes on ethyl(dimethylaminopropyl) carbodiimide (EDC)/N-Hydroxysuccinimide (NHS) activated flow-cell. A control flow-cell was activated by (EDC/NHS) and inactivated by ethanolamine. Different concentrations of Ad3 fiber knob proteins were injected for 3 minutes association followed by 2.5 minutes dissociation time, and the signal was automatically subtracted from the background of the ethanolamine deactivated EDC-NHS flow cell. Kinetic and affinity constants were calculated using the BIAeval software.

[6] = even at concentrations of 200 ug/ml

B1: F265L (protein)
chain: MKVSALKEKVSALKEKVSALKEKVSALKEKVSALKEGSGGGSGGGSGGGSNSIALKNNTLWTGPKPEANCIIEYGKQNPDSKLTLILVKNGGIVNGYVTLMGASDYVNTLFKNKNVSINVELYFDATGHILPDSSSLKTDLELKYKQTADFSARGFMPSTTAYPFVLPNAGTHNENYIFGQCYYKASDGALLPLEVTVMLNKRLPDSRTSYVMTFLWSLNAGLAPETTQATLITSPFTFSYIREDD
Ad3-GFP virus [1]; pre-incubation with knob, GFP expression
  Inhibition of Ad3-GFP infection of HeLa cells, in words: least reduced
Soluble recombinant DSG2
  DSG2 binding in Western blot, in words: almost completely ablated

B2: N186D, D261N, L296R: dimeric Ad3 fiber knob with a combination of all three N186D, D261N, and L296R (protein)
chain: MKVSALKEKVSALKEKVSALKEKVSALKEKVSALKEGSGGGSGGGSGGGSNSIALKNNTLWTGPKPEANCIIEYGKQNPDSKLTLILVKNGGIVNGYVTLMGASDYVNTLFKDKNVSINVELYFDATGHILPDSSSLKTDLELKYKQTADFSARGFMPSTTAYPFVLPNAGTHNENYIFGQCYYKASNGALFPLEVTVMLNKRLPDSRTSYVMTFLWSLNAGRAPETTQATLITSPFTFSYIREDD
Ad3-GFP virus [1]; [6]
  Block of Ad3 infection: did not block
Soluble recombinant DSG2
  DSG2 binding in Western blot, in words: highest level of ablation
3H-labeled Ad3 virus; Ad3 virus attachment to HeLa cells, N=3, averages
  Inhibition of attachment in the presence of dimeric knob (JO-1 = 100%): 18.5%
3H-labeled Ad3 virus; [6]
  Block of Ad3 binding (attachment): did not block

B3: Ad3 knob monomer: Recombinant (trimeric) fiber knob with two shaft motifs, but without the dimerization domain (protein)
chain: NKLCSKLGNGLTFDSSNSIALKNNTLWTGPKPEANCIIEYGKQNPDSKLTLILVKNGGIVNGYVTLMGASDYVNTLFKNKNVSINVELYFDATGHILPDSSSLKTDLELKYKQTADFSARGFMPSTTAYPFVLPNAGTHNENYIFGQCYYKASDGALFPLEVTVMLNKRLPDSRTSYVMTFLWSLNAGLAPETTQATLITSPFTFSYIREDD
modifications: left off: small tags and cut ends
notes: Recombinant (trimeric) fiber knob with two shaft motifs, but without the dimerization domain
Ad3-GFP virus [2]
  Block of Ad3 infection: not able to block Ad3 infection
DSG2 [3]
  Affinity of binding to DSG2 relative to JO-1: orders of magnitude less than JO-1
[4]
  Junction opening: does not trigger junction opening

B4: N293S/noDD (protein)
chain: NKLCSKLGNGLTFDSSNSIALKNNTLWTGPKPEANCIIEYGKQNPDSKLTLILVKNGGIVNGYVTLMGASDYVNTLFKNKNVSINVELYFDATGHILPDSSSLKTDLELKYKQTADFSARGFMPSTTAYPFVLPNAGTHNENYIFGQCYYKASDGALFPLEVTVMLNKRLPDSRTSYVMTFLWSLSAGLAPETTQATLITSPFTFSYIREDD
modifications: left off: small tags and cut ends
DSG2 [5]
  association rate to DSG2, in words: lowest when compared to other mutants
  dissociation rate, in words: slower dissociation rate
